Experiments:
Assay in all cases: split reporter (BiFC, NanoBiT); SFLC in living Arabidopsis mesophyll protoplasts: Aux/IAA-FLucN or MYB30-FLucN co-expressed with ARFCTD-FLucC or Aux/IAA-FLucC for 6 hr; 10 µg of each construct, 2×10^4 cells, 96-well plate, D-luciferin; relative activity standardised against ARF5CTD-FLucC + IAA28-FLucN
Settings in all cases: partners not purified
[1] = molecular target: T1, ARF6 C-terminal domain (CTD)-FLucC (Arabidopsis, UniProt Q9ZTX8 796-935)
T1 construct: In the ARF-ARF tests the same CTD stood both as ARFCTD-FLucC and as ARFCTD-FLucN; one molecule for both; also called ARF6CTD-FLucC; ARFCTD-FLucC; source: Arabidopsis mesophyll protoplasts, transfected, in living cells (SFLC) and in lysate (co-IP); not shown: FLucC (firefly luciferase aa 394-550)
T1 sequence (looked up): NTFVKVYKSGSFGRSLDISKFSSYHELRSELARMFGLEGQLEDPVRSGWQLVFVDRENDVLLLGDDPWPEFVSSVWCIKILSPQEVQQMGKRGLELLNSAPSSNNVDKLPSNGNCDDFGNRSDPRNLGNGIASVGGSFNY

IAA13-FLucC = molecular target: T2, IAA13-FLucC (Arabidopsis, UniProt Q38831 1-247)
T2 construct: Arabidopsis Aux/IAA protein IAA13; also called Aux/IAA-FLucC; source: Arabidopsis mesophyll protoplasts, transfected, in living cells; not shown: FLucC (firefly luciferase aa 394-550)
T2 sequence (looked up): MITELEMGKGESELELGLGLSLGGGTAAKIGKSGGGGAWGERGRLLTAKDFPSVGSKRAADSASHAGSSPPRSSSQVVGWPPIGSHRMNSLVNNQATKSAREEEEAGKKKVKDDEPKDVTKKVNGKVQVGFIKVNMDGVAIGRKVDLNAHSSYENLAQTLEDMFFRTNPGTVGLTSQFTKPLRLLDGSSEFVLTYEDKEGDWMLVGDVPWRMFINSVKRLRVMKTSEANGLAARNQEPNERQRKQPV

IAA28-FLucC = molecular target: T3, IAA28-FLucC (Arabidopsis, UniProt Q9XFM0 1-175)
T3 construct: Arabidopsis Aux/IAA protein IAA28; also called Aux/IAA-FLucC; source: Arabidopsis mesophyll protoplasts, transfected, in living cells; not shown: FLucC (firefly luciferase aa 394-550)
T3 sequence (looked up): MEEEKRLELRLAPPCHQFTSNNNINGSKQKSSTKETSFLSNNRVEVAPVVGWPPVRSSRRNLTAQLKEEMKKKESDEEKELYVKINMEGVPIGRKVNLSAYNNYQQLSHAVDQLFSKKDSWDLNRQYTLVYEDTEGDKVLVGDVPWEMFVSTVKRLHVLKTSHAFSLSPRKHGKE

Measured: relative luciferase activity (standardised against ARF5CTD-FLucC + IAA28-FLucN)

B1: MYB30-FLucN (natural protein, UniProt Q9SCU7 1-323, looked up)
chain: MVRPPCCDKGGVKKGPWTPEEDIILVTYIQEHGPGNWRAVPTNTGLLRCSKSCRLRWTNYLRPGIKRGNFTEHEEKMIVHLQALLGNRWAAIASYLPQRTDNDIKNYWNTHLKKKLNKVNQDSHQELDRSSLSSSPSSSSANSNSNISRGQWERRLQTDIHLAKKALSEALSPAVAPIITSTVTTTSSSAESRRSTSSASGFLRTQETSTTYASSTENIAKLLKGWVKNSPKTQNSADQIASTEVKEVIKSDDGKECAGAFQSFSEFDHSYQQAGVSPDHETKPDITGCCSNQSQWSLFEKWLFEDSGGQIGDILLDENTNFF
notes: transcription factor MYB30, the unrelated protein used as negative control; source: Arabidopsis mesophyll protoplasts, transfected, in living cells; not shown: FLucN (firefly luciferase aa 1-398)
< 0.1: all assays above

Source: PMC3212559, “Large-Scale Protein-Protein Interaction Analysis in Arabidopsis Mesophyll Protoplasts by Split Firefly Luciferase Complementation” (PLoS ONE, 2011)
